Source: the supplement of paper PMC12338614
± gives the uncertainty stated by the source.

B1: library; numbered along this chain (parent)
chain: MEVVDPQQLGMFTEGELMSVGMDTFIHRIDSTEVIYQPRRKRAKLIGKYLMGDLLGEGSYGKVKEVLDSETLCRRAVKILKKKKLRRIPNGEANVKKEIQLLRRLRHKNVIQLVDVLYNEEKQKMYMVMEYCVCGMQEMLDSVPEKRFPVCQAHGYFCQLIDGLEYLHSQGIVHKDIKPGNLLLTTGGTLKISDLGVAEALHPFAADDTCRTSQGSPAFQPPEIANGLDTFSGFKVDIWSAGVTLYNITTGLYPFEGDNIYKLFENIGKGSYAIPGDCGPPLSDLLKGMLEYEPAKRFSIRQIRQHSWFRKKHPPAEAPVPIPPSPDTKDRWRSMTVVPYLEDLHGADEDEDLFDIEDDIIYTQDFTVPGQVPEEEASHNGQRRGLPKAVCMNGTEAAQLSTKSRAEGRAPNPARKACSASSKIRRLSACKQQ

Variants of: B1
Assay: STK11 functional score (HeLa growth suppression), rescaled enrichment; synonymous median = 1, nonsense median = 0 (normalised score)
Conditions: with HeLa; variant type: missense
How it was run: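 HeLa cells carrying an AAVS1 landing pad received codon-optimised STK11 libraries made by codon randomisation (POPCode), integrated by Bxb1, with three regions each transfected three times. Integrants that were BFP-negative and mCherry-positive were sorted by FACS 4–5 days after electroporation and then grown for about two weeks. Tiled amplicons from gDNA were sequenced on NextSeq at ~2 million reads per tile. The functional score is a wild-type-corrected log ratio of post- to pre-selection counts, rescaled to the synonymous and nonsense medians, merged across codons and replicate transfections, and given a bootstrapped error.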

M129K and A318D are within error of each other in STK11 functional score: 1.35 ± 0.58 for the first, 1.51 ± 0.18 for the second.

L353R and P6I are within error of each other in STK11 functional score: 1.57 ± 0.17 for the first, 1.61 ± 0.19 for the second.

Going from V95G to V95T, the STK11 functional score rises from 0.326 ± 0.15 to 1.62 ± 0.22.

F219Y and F219I are within error of each other in STK11 functional score: 1.29 ± 0.54 for the first, 1.31 ± 0.32 for the second.

First: D176T
Second: N380F
The STK11 functional score of the first is lower: -0.105 ± 0.43 for the first, 1.06 ± 0.12 for the second.

T363G and S31V are the same in STK11 functional score: 1.58 ± 0.24 for the first, 1.58 ± 0.21 for the second.

First: T24W
Second: P254V
The STK11 functional score of the first is higher: 1.6 ± 0.093 for the first, 0.86 ± 0.31 for the second.

Compared with P254H, L9F is lower in STK11 functional score: 1.41 ± 0.15 for the first, 1.06 ± 0.19 for the second.

Compared with G215R, Y362W is higher in STK11 functional score: 0.426 ± 0.24 for the first, 1.31 ± 0.22 for the second.

Going from P411I to N259A, the STK11 functional score falls from 1.55 ± 0.15 to -0.00474 ± 0.089.

First: H154S
Second: K44L
The STK11 functional score of the first is lower: 0.47 ± 0.11 for the first, 1.36 ± 0.2 for the second.

Compared with K311A, V243W is lower in STK11 functional score: 1.61 ± 0.15 for the first, 0.598 ± 0.099 for the second.

R415E and R425T are within error of each other in STK11 functional score: 1.48 ± 0.33 for the first, 1.52 ± 0.27 for the second.

First: V34Y
Second: L245W
The STK11 functional score of the first is higher: 1.05 ± 0.13 for the first, -0.0585 ± 0.093 for the second.

G288A and I99G are within error of each other in STK11 functional score: 0.95 ± 0.38 for the first, 0.767 ± 0.3 for the second.

Going from Y246W to A406M, the STK11 functional score falls from 1.15 ± 0.092 to 0.606 ± 0.2.

C391T and V197W are within error of each other in STK11 functional score: 0.912 ± 0.71 for the first, 1.25 ± 0.19 for the second.

G251D and L117F are within error of each other in STK11 functional score: 0.751 ± 0.47 for the first, 0.858 ± 0.21 for the second.

Compared with E120W, Y131M is lower in STK11 functional score: 0.626 ± 0.087 for the first, -0.137 ± 0.13 for the second.

M127W and D352M are within error of each other in STK11 functional score: 0.627 ± 0.31 for the first, 1.2 ± 0.33 for the second.

First: G279C
Second: S232D
The STK11 functional score of the first is lower: 0.657 ± 0.1 for the first, 1.14 ± 0.3 for the second.

Going from N181K to F255P, the STK11 functional score rises from -0.18 ± 0.14 to 0.517 ± 0.11.

K403T and L341C are within error of each other in STK11 functional score: 1.19 ± 0.42 for the first, 1.38 ± 0.17 for the second.

D365M and K108I are within error of each other in STK11 functional score: 1.59 ± 0.14 for the first, 1.43 ± 0.34 for the second.

S213F and S213Y are within error of each other in STK11 functional score: 1.35 ± 0.41 for the first, 1.34 ± 0.28 for the second.

Compared with N109P, R409F is higher in STK11 functional score: -0.121 ± 0.086 for the first, 0.845 ± 0.4 for the second.

P89Y and E351M are within error of each other in STK11 functional score: 0.644 ± 0.31 for the first, 0.992 ± 0.19 for the second.

First: A295S
Second: A377H
The STK11 functional score of the first is higher: 1.44 ± 0.16 for the first, 0.0602 ± 0.3 for the second.

Compared with A377L, S334E is higher in STK11 functional score: 1.04 ± 0.16 for the first, 1.53 ± 0.17 for the second.

First: R301G
Second: T185N
The STK11 functional score of the first is higher: 1.48 ± 0.25 for the first, 0.509 ± 0.18 for the second.

T185D and I267G are within error of each other in STK11 functional score: 0.415 ± 0.37 for the first, 0.602 ± 0.3 for the second.

G171W and E130T are within error of each other in STK11 functional score: 1.53 ± 0.11 for the first, 1.33 ± 0.34 for the second.

Going from E130W to H27Q, the STK11 functional score rises from -0.0647 ± 0.079 to 0.792 ± 0.18.

H27R and K287G are within error of each other in STK11 functional score: 1.03 ± 0.18 for the first, 1.28 ± 0.16 for the second.

Going from D53S to K262S, the STK11 functional score falls from 1.51 ± 0.24 to 0.994 ± 0.17.

Compared with V77W, G163C is lower in STK11 functional score: 0.824 ± 0.077 for the first, 0.245 ± 0.11 for the second.

Q100V and E375H are within error of each other in STK11 functional score: 1.39 ± 0.2 for the first, 1.24 ± 0.57 for the second.

T209E and I46E are within error of each other in STK11 functional score: 1.17 ± 0.18 for the first, 1.57 ± 0.41 for the second.

First: D30G
Second: L80V
The STK11 functional score of the first is higher: 1.52 ± 0.3 for the first, 0.484 ± 0.079 for the second.

K48N and A200Y are within error of each other in STK11 functional score: 0.966 ± 0.39 for the first, 1.29 ± 0.38 for the second.

E407P and E407T are within error of each other in STK11 functional score: 1.6 ± 0.15 for the first, 1.61 ± 0.28 for the second.

I322S and V372F are within error of each other in STK11 functional score: 1.21 ± 0.24 for the first, 1.12 ± 0.35 for the second.
